# In PMC9934059, “Characterization of a glycan-binding complex of minor pilins completes the analysis of Streptococcus sanguinis type 4 pili subunits” (Proceedings of the National Academy of Sciences of the …, 2023):
# Legend:
# [1] = target: 6His–PilC (Streptococcus sanguinis 2908); test: ITC; MicroCal ITC200; average ± SD of three (mutants: 2 to 3) independent experiments
# [2] = target: 6His–PilC (Streptococcus sanguinis 2908); test: SEC-MALS; ÄKTA Prime, S200 10/300 GL column, Wyatt MALS detector; 6His–PilA and 6His–PilC separately and after mixing equimolar amounts
# [3] = target: 6His–PilA (Streptococcus sanguinis 2908); test: as above
# PilC [4] = target: T1, PilC (Streptococcus sanguinis, UniProt A0A0B7GRV8); test: ITC (three independent experiments); supported by glycan microarray; type: binding
# T1 construct: 6His–PilCΔpilin (lacking the pilin moiety; Ig-like and lectin modules), strain 2908
# 6His–PilC = test: ITC; details: parent: est. 1.0; read off a plot
# PilC [5] = target: T2, PilC (Streptococcus sanguinis, UniProt A0A0B7GRV8, K358A); test: ITC of mutant, KD ratio to WT (reduced affinity); type: binding
# T2 construct: PilCΔpilin (lacking the pilin moiety), strain 2908
# T2 sequence (A0A0B7GRV8 122-486 K358A): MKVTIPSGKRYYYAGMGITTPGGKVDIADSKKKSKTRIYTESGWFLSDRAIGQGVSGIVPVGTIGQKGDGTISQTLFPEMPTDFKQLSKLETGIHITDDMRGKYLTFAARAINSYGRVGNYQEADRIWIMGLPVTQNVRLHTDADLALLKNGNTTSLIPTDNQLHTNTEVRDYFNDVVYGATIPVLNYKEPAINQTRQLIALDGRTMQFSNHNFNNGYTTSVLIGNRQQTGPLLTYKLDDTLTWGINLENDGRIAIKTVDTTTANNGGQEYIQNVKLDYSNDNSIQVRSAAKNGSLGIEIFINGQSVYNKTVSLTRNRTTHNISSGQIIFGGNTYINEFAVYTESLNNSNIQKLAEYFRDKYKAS
molecule,measurement,setting,value
6His–PilA (domain or fragment),Kd,[1],0.0238 µM
same,stoichiometry N,[2],1
same,stoichiometry N,[3],2
"CC(=O)N[C@H]1[C@H]([C@H](O)[C@H](O)CO)O[C@@](O[C@H]2[C@@H](O)[C@@H](CO)O[C@@H](O[C@H]3[C@H](O)[C@@H](NC(C)=O)C(O)O[C@@H]3CO)[C@@H]2O)(C(=O)O)C[C@@H]1O (stereo partly drawn) [3′-SLN, 3′-sialyl-N-acetyllactosamine]",Kd,PilC [4],144 ± 7.36 µM
6His–PilA K85A,ratio to parent,6His–PilC,0.98
PilA_(T87A) (from UniProt A0A0B7GNW3 33-164) (domain or fragment),percent of the wild-type (WT) binding (KD ratio to the WT),[1],38.3%
"CC(=O)N[C@H]1[C@H]([C@H](O)[C@H](O)CO)O[C@@](O[C@H]2[C@@H](O)[C@@H](CO)O[C@@H](O[C@H]3[C@H](O)[C@@H](O)C(O)O[C@@H]3CO)[C@@H]2O)(C(=O)O)C[C@@H]1O (stereo partly drawn) [3′-SL, 3′-sialyllactose]",Kd,PilC [4],79.1 ± 0.36 µM
same,% of WT binding,PilC [5],39.3 ± 1.4 % of WT binding
6His–PilA A68S,ratio to parent,6His–PilC,0.87
